Experimental findings from the Human Domainome abundance scans (Beltran et al. 2025) are described below.

± gives the uncertainty stated by the source.

B1: DnaJ homolog subfamily C member 5, residues 16 to 77; numbered along this chain, Q9H3Z4 (parent)
chain: LYHVLGLDKNATSDDIKKSYRKLALKYHPDKNPDNPEAADKFKEINNAHAILTDATKRNIYD

This series covers variants of B1. The series can be described thus: abundance fitness (aPCA) (normalised: wild type 0, dead -1); higher = more abundant; growth selection in yeast, the domain comes from the species named. Particulars: Homo sapiens.
As to LYHVLGLDKNATSDDIKKSYRKLALKYHPDKNPDNPEAADKFKEDNNAHAILTDATKRNIYD [I45D], the abundance fitness is -0.311 ± 0.2. To LYHVLGLDKNATSDDIKKSYRKLALKYHPDKNPDNPEAADKFKECNNAHAILTDATKRNIYD [I45C] belongs -0.44 ± 0.11. For LYHVLGLDKNATSDDIKKSYRKLALKYHPDKNPDNPEAADKFKEGNNAHAILTDATKRNIYD [I45G] the value was -0.253 ± 0.063; for LYHVLGLDKNATSDDIKKSYRKLALKYHPDKNPDNPEAADKFKEANNAHAILTDATKRNIYD [I45A], -0.181 ± 0.076; for LYHVLGLDKNATSDDIKKSYRKLALKYHPDKNPDNPEAADKFKEYNNAHAILTDATKRNIYD [I45Y], -0.366 ± 0.14. As to LYHVLGLDKNATSDDIKKSYRKLALKYHPDKNPDNPEAADKFKEPNNAHAILTDATKRNIYD [I45P], the abundance fitness is -0.425 ± 0.13. For LYHVLGLDKNATSDDIKKSYRKLALKYHPDKNPDNPEAADKFKETNNAHAILTDATKRNIYD [I45T] the value was -0.216 ± 0.086.

Regarding LYHVLGLDKNATSDDIKKSYRKLALKYHPDKNPDNPEAADKFKESNNAHAILTDATKRNIYD [I45S], the abundance fitness is -0.47 ± 0.065. Regarding LYHVLGLDKNATSDDIKKSYRKLALKYHPDKNPDNPEAADKFKERNNAHAILTDATKRNIYD [I45R], the abundance fitness is -0.623 ± 0.068. Regarding LYHVLGLDKNATSDDIKKSYRKLALKYHPDKNPDNPEAADKFKEVNNAHAILTDATKRNIYD [I45V], the abundance fitness worked out at 0.007 ± 0.065.

LYHVLGLDKNATSDDIKKSYRKLALKYHPDKNPDNPEAADKFKENNNAHAILTDATKRNIYD [I45N]: the abundance fitness is -0.381 ± 0.18.

Regarding LYHVLGLDKNATSDDIKKSYRKLALKYHPDKNPDNPEAADKFKEQNNAHAILTDATKRNIYD [I45Q], the abundance fitness is -0.45 ± 0.091. On to LYHVLGLDKNATSDDIKKSYRKLALKYHPDKNPDNPEAADKFKEENNAHAILTDATKRNIYD [I45E], for which the abundance fitness is -0.203 ± 0.083. Take LYHVLGLDKNATSDDIKKSYRKLALKYHPDKNPDNPEAADKFKEHNNAHAILTDATKRNIYD [I45H]: the abundance fitness was -0.792 ± 0.15.

Regarding LYHVLGLDKNATSDDIKKSYRKLALKYHPDKNPDNPEAADKFKEFNNAHAILTDATKRNIYD [I45F], the abundance fitness was -0.747 ± 0.13. For LYHVLGLDKNATSDDIKKSYRKLALKYHPDKNPDNPEAADKFKEWNNAHAILTDATKRNIYD [I45W] the value was -0.841 ± 0.089.

On to LYHVLGLDKNATSDDIKKSYRKLALKYHPDKNPDNPEAADKFKEMNNAHAILTDATKRNIYD [I45M], for which the abundance fitness is -0.418 ± 0.084. In the case of LYHVLGLDKNATSDDIKKSYRKLALKYHPDKNPDNPEAADKFKELNNAHAILTDATKRNIYD [I45L], the abundance fitness was -0.026 ± 0.063. Take LYHVLGLDKNATSDDIKKSYRKLALKYHPDKNPDNPEAADKFKEKNNAHAILTDATKRNIYD [I45K]: the abundance fitness was -0.263 ± 0.093.

Regarding LYHVLGLDKNATSDDIKKSYRKLALKYHPDKNPDNPEAADYFKEINNAHAILTDATKRNIYD [K41Y], the abundance fitness is -0.254 ± 0.21. For LYHVLGLDKNATSDDIKKSYRKLALKYHPDKNPDNPEAADSFKEINNAHAILTDATKRNIYD [K41S] the value was -0.223 ± 0.12; for LYHVLGLDKNATSDDIKKSYRKLALKYHPDKNPDNPEAADTFKEINNAHAILTDATKRNIYD [K41T], -0.197 ± 0.11; for LYHVLGLDKNATSDDIKKSYRKLALKYHPDKNPDNPEAADWFKEINNAHAILTDATKRNIYD [K41W], -0.4 ± 0.095. For the variant LYHVLGLDKNATSDDIKKSYRKLALKYHPDKNPDNPEAADVFKEINNAHAILTDATKRNIYD [K41V], the abundance fitness was -0.278 ± 0.063. To LYHVLGLDKNATSDDIKKSYRKLALKYHPDKNPDNPEAADKFYEINNAHAILTDATKRNIYD [K43Y] belongs 0.364 ± 0.29; to LYHVLGLDKNATSDDIKKSYRKLALKYHPDKNPDNPEAADKFWEINNAHAILTDATKRNIYD [K43W], -0.276 ± 0.15; to LYHVLGLDKNATSDDIKKSYRKLALKYHPDKNPDNPEAADKFREINNAHAILTDATKRNIYD [K43R], -0.263 ± 0.15. To LYHVLGLDKNATSDDIKKSYRKLALKYHPDKNPDNPEAADKFAEINNAHAILTDATKRNIYD [K43A] belongs 0.299 ± 0.17; to LYHVLGLDKNATSDDIKKSYRKLALKYHPDKNPDNPEAADKFPEINNAHAILTDATKRNIYD [K43P], -1.02 ± 0.34. In the case of LYHVLGLDKNATSDDIKKSYRKLALKYHPDKNPDNPEAADKFQEINNAHAILTDATKRNIYD [K43Q], the abundance fitness amounted to 0.362 ± 0.17. LYHVLGLDKNATSDDIKKSYRKLALKYHPDKNPDNPEAADKFHEINNAHAILTDATKRNIYD [K43H]: the abundance fitness was 0.519 ± 0.48.

On to LYHVLGLDKNATSDDIKKSYRKLALKYHPDKNPDNPEAADKFGEINNAHAILTDATKRNIYD [K43G], for which the abundance fitness is -0.116 ± 0.11.

For the variant LYHVLGLDKNATSDDIKKSYRKLALKYHPDKNPDNPEAADKFTEINNAHAILTDATKRNIYD [K43T], the abundance fitness turned out to be 0.051 ± 0.2. For the variant LYHVLGLDKNATSDDIKKSYRKLALKYHPDKNPDNPEAADKFDEINNAHAILTDATKRNIYD [K43D], the abundance fitness was found to be 0.015 ± 0.3.

For LYHVLGLDKNATSDDIKKSYRKLALKYHPDKNPDNPEAADKFSEINNAHAILTDATKRNIYD [K43S], the abundance fitness is -0.043 ± 0.19. As for LYHVLGLDKNATSDDIKKSYRKLALKYHPDKNPDNPEAADKFEEINNAHAILTDATKRNIYD [K43E], the abundance fitness was -0.34 ± 0.18.

Turning to LYHVLGLDKNATSDDIKKSYRKLALKYHPDKNPDNPEAADKFFEINNAHAILTDATKRNIYD [K43F], the abundance fitness came to 0.349 ± 0.17. With LYHVLGLDKNATSDDIKKSYRKLALKYHPDKNPDNPEAADKFNEINNAHAILTDATKRNIYD [K43N], the abundance fitness was -0.23 ± 0.3. For LYHVLGLDKNATSDDIKKSYRKLALKYHPDKNPDNPEAADKFMEINNAHAILTDATKRNIYD [K43M], the abundance fitness is 0.382 ± 0.25.

For the variant LYHVLGLDKNATSDDIKKSYRKLALKYHPDKNPDNPEAADKFKNINNAHAILTDATKRNIYD [E44N], the abundance fitness was -0.196 ± 0.12. As to LYHVLGLDKNATSDDIKKSYRKLALKYHPDKNPDNPEAADKFKGINNAHAILTDATKRNIYD [E44G], the abundance fitness is -0.527 ± 0.098. As to LYHVLGLDKNATSDDIKKSYRKLALKYHPDKNPDNPEAADKFKSINNAHAILTDATKRNIYD [E44S], the abundance fitness was -0.3 ± 0.067. To LYHVLGLDKNATSDDIKKSYRKLALKYHPDKNPDNPEAADKFKAINNAHAILTDATKRNIYD [E44A] belongs -0.135 ± 0.086.
